4 molecules from PMC7440162 (Cell, 2020) can be followed below.

What all share (test): SPR
The target in test [1] is T1, PRTG ECD-Fc (human, UniProt Q2VWP7 36-949).
T1 sequence: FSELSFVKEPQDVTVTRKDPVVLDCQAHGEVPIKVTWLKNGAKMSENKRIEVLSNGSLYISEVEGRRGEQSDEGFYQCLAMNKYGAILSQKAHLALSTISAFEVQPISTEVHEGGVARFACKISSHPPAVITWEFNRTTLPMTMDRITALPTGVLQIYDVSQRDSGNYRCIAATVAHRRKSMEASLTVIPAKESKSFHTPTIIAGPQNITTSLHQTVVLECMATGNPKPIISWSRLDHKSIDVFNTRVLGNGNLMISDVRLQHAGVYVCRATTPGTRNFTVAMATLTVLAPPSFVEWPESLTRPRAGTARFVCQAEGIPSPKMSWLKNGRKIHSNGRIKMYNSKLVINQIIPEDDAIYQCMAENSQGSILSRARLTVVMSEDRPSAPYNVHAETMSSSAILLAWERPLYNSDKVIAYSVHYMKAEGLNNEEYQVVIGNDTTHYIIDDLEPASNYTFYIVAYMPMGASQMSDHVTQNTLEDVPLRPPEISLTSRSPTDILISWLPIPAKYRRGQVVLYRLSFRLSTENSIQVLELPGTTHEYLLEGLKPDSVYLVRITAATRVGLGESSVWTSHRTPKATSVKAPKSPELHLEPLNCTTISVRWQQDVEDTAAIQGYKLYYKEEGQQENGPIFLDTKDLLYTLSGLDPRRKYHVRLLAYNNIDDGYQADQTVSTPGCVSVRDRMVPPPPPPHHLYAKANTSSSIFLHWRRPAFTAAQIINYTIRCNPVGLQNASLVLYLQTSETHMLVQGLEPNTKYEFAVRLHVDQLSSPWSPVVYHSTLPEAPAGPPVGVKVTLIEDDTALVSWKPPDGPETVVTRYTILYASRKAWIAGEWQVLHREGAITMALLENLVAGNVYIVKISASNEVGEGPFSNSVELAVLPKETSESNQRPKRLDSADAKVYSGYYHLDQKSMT

Test [2] concerns the target T2, human ISLR2 ECD-Fc (human, UniProt Q6UXK2 19-589, biotin on the AviTag (as SPR ligand)).
T2 sequence: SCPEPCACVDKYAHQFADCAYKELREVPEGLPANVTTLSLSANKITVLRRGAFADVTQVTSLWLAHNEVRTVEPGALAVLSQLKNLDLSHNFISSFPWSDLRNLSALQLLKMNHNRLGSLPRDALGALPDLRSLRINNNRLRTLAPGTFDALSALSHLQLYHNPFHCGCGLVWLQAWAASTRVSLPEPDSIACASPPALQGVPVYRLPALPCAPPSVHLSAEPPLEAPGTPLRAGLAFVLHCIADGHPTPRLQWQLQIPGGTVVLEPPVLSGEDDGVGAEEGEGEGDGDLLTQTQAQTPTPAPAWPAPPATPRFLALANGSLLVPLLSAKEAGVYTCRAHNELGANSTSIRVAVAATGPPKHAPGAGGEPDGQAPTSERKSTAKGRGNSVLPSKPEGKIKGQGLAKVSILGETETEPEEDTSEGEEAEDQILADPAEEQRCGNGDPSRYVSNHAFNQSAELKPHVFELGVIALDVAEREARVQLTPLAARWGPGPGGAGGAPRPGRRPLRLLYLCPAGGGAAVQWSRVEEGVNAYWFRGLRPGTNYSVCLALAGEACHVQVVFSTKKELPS

In test [3] the target is T3, PTPRS ECD-Fc (human, UniProt Q13332 30-1282).
T3 sequence: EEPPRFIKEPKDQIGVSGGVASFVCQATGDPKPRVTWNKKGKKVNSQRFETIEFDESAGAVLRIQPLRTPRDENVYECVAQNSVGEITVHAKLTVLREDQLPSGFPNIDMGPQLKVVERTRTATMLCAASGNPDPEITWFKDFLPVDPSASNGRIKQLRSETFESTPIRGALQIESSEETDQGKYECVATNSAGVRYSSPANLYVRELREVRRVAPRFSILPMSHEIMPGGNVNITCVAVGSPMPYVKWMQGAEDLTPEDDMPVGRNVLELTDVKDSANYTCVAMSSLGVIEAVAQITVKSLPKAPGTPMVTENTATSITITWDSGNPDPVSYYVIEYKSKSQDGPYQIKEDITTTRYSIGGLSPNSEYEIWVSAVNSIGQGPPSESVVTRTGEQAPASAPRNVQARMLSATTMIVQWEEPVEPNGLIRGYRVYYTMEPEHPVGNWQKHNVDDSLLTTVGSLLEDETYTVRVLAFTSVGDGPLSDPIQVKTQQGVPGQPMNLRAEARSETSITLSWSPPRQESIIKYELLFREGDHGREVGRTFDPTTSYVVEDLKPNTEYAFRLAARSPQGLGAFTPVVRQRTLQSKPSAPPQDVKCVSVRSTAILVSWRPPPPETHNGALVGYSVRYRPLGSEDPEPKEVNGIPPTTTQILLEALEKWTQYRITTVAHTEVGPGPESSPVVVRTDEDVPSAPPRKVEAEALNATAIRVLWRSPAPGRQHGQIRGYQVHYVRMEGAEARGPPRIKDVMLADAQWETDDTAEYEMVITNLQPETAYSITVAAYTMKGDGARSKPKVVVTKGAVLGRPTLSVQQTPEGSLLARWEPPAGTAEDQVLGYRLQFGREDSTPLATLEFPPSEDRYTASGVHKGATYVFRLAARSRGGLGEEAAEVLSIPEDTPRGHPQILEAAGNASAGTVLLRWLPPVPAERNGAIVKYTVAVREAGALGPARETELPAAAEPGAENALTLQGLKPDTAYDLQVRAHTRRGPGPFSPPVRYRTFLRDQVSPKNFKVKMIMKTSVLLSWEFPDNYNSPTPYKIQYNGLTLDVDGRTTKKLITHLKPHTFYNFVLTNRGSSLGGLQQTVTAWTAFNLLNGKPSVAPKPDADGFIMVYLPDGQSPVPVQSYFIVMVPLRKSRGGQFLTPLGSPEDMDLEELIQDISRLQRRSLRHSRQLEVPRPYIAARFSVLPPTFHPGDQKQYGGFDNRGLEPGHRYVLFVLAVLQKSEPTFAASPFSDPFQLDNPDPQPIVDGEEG

B1: LTF-Fc (Fc fusion)
chain: GRRRSVQWCAVSQPEATKCFQWQRNMRKVRGPPVSCIKRDSPIQCIQAIAENRADAVTLDGGFIYEAGLAPYKLRPVAAEVYGTERQPRTHYYAVAVVKKGGSFQLNELQGLKSCHTGLRRTAGWNVPIGTLRPFLNWTGPPEPIEAAVARFFSASCVPGADKGQFPNLCRLCAGTGENKCAFSSQEPYFSYSGAFKCLRDGAGDVAFIRESTVFEDLSDEAERDEYELLCPDNTRKPVDKFKDCHLARVPSHAVVARSVNGKEDAIWNLLRQAQEKFGKDKSPKFQLFGSPSGQKDLLFKDSAIGFSRVPPRIDSGLYLGSGYFTAIQNLRKSEEEVAARRARVVWCAVGEQELRKCNQWSGLSEGSVTCSSASTTEDCIALVLKGEADAMSLDGGYVYTAGKCGLVPVLAENYKSQQSSDPDPNCVDRPVEGYLAVAVVRRSDTSLTWNSVKGKKSCHTAVDRTAGWNIPMGLLFNQTGSCKFDEYFSQSCAPGSDPRSNLCALCIGDEQGENKCVPNSNERYYGYTGAFRCLAENAGDVAFVKDVTVLQNTDGNNNEAWAKDLKLADFALLCLDGKRKPVTEARSCHLAMAPNHAVVSRMDKVERLKQVLLHQQAKFGRNGSDCPDKFCLFQSETKNLLFNDNTECLARLHGKTTYEKYLGPQYVAGITNLKKCSTSPLLEACEFLRK
modifications: biotin on the AviTag (as SPR ligand)
B1: the binding result in test [1] was “binds”.

B2: ICAM5 ECD-Fc (Fc fusion)
chain: EPFWADLQPRVAFVERGGSLWLNCSTNCPRPERGGLETSLRRNGTQRGLRWLARQLVDIREPETQPVCFFRCARRTLQARGLIRTFQRPDRVELMPLPPWQPVGENFTLSCRVPGAGPRASLTLTLLRGAQELIRRSFAGEPPRARGAVLTATVLARREDHGANFSCRAELDLRPHGLGLFENSSAPRELRTFSLSPDAPRLAAPRLLEVGSERPVSCTLDGLFPASEARVYLALGDQNLSPDVTLEGDAFVATATATASAEQEGARQLVCNVTLGGENRETRENVTIYSFPAPLLTLSEPSVSEGQMVTVTCAAGAQALVTLEGVPAAVPGQPAQLQLNATENDDRRSFFCDATLDVDGETLIKNRSAELRVLYAPRLDDSDCPRSWTWPEGPEQTLRCEARGNPEPSVHCARSDGGAVLALGLLGPVTRALSGTYRCKAANDQGEAVKDVTLTVEYAPALDSVGCPERITWLEGTEASLSCVAHGVPPPDVICVRSGELGAVIEGLLRVAREHAGTYRCEATNPRGSAAKNVAVTVEYGPRFEEPSCPSNWTWVEGSGRLFSCEVDGKPQPSVKCVGSGGATEGVLLPLAPPDPSPRAPRIPRVLAPGIYVCNATNRHGSVAKTVVVSAESPPEMDESTCPSHQTWLEGAEASALACAARGRPSPGVRCSREGIPWPEQQRVSREDAGTYHCVATNAHGTDSRTVTVGVEYRPVVAELAASPPGGVRPGGNFTLTCRAEAWPPAQISWRAPPGALNIGLSSNNSTLSVAGAMGSHGGEYECAATNAHGRHARRITVRVAGPW
modifications: biotin on the AviTag (as SPR ligand)
For B2, the binding result in test [1] is reported as “binds”.

B3: WFIKKN2-Fc (Fc fusion)
chain: LPPIRYSHAGICPNDMNPNLWVDAQSTCRRECETDQECETYEKCCPNVCGTKSCVAARYMDVKGKKGPVGMPKEATCDHFMCLQQGSECDIWDGQPVCKCKDRCEKEPSFTCASDGLTYYNRCYMDAEACSKGITLAVVTCRYHFTWPNTSPPPPETTMHPTTASPETPELDMAAPALLNNPVHQSVTMGETVSFLCDVVGRPRPEITWEKQLEDRENVVMRPNHVRGNVVVTNIAQLVIYNAQLQDAGIYTCTARNVAGVLRADFPLSVVRGHQAAATSESSPNGTAFPAAECLKPPDSEDCGEEQTRWHFDAQANNCLTFTFGHCHRNLNHFETYEACMLACMSGPLAACSLPALQGPCKAYAPRWAYNSQTGQCQSFVYGGCEGNGNNFESREACEESCPFPRGNQRCRACKPRQKLVTSFCRSDFVILGRVSELTEEPDSGRALVTVDEVLKDEKMGLKFLGQEPLEVTLLHVDWACPCPNVTVSEMPLIIMGEVDGGMAMLRPDSFVGASSARRVRKLREVMHKKTCDVLKEFLGLH
modifications: biotin on the AviTag (as SPR ligand)
On to B3, for which the binding result in test [1] and in test [2] was “binds” each time.

B4: IL1RAPL1 ECD-Fc (Fc fusion)
chain: LKVVTKRGSADGCTDWSIDIKKYQVLVGEPVRIKCALFYGYIRTNYSLAQSAGLSLMWYKSSGPGDFEEPIAFDGSRMSKEEDSIWFRPTLLQDSGLYACVIRNSTYCMKVSISLTVGENDTGLCYNSKMKYFEKAELSKSKEISCRDIEDFLLPTREPEILWYKECRTKTWRPSIVFKRDTLLIREVREDDIGNYTCELKYGGFVVRRTTELTVTAPLTDKPPKLLYPMESKLTIQETQLGDSANLTCRAFFGYSGDVSPLIYWMKGEKFIEDLDENRVWESDIRILKEHLGEQEVSISLIVDSVEEGDLGNYSCYVENGNGRRHASVLLHKRELMYT
modifications: biotin on the AviTag (as SPR ligand)
As to B4, the binding result in test [3] was “binds”.
